Source: patent publication US20090203610A1, “METHODS OF TREATING OBESITY OR DIABETES USING NT-4/5” (RINAT NEUROSCIENCE CORPORATION, priority 2004, published 2009)

Tests used:
[1] = test system: db/db mice; test: Body weight, daily then intermittent s.c. dosing to day 29 in db/db mice (Example 2); type: in vivo
Protocol: Female db/db mice (12 weeks old) were divided into four groups and were subcutaneously injected with vehicle (PBS) or NT-4/5 at doses of 2 mg/kg, 5 mg/kg, or 10 mg/kg daily from day 0 to day 4, and then on day 8, day 11, day 15, day 18, day 22, day 25, and day 29. […] In addition, the body weights in NT-4/5 in all treated groups continued to be reduced during the treatment period.

[2] = target: T1, human TrkB (Homo sapiens, UniProt Q16620); test: Receptor tyrosine phosphorylation (KIRA) in TrkB expressing cell line; type: cell-based
T1 construct: expressed in transfected cells
T1 sequence (Q16620 32-822): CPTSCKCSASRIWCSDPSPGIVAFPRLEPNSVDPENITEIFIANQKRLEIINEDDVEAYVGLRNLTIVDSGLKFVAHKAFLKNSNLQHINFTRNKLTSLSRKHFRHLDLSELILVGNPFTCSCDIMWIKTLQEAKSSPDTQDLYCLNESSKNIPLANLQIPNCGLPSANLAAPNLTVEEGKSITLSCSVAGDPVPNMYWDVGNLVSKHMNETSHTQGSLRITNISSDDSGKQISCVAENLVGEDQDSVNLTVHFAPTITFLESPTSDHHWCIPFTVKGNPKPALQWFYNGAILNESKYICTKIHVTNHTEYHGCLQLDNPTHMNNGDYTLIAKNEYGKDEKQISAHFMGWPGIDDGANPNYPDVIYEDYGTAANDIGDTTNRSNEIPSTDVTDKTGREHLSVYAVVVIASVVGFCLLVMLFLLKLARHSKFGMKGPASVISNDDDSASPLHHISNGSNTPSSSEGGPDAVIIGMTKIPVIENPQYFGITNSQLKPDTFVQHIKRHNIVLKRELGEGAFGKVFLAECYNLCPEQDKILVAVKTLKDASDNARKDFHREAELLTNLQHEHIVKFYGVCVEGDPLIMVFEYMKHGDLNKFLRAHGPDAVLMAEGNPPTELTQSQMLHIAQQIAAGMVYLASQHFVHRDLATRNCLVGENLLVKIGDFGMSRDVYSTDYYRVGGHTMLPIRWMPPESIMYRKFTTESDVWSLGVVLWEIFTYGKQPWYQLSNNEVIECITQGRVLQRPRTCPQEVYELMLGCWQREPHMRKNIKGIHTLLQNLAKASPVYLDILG

[3] = test system: db/db mice; test: Dose response of NT-4/5 on serum biomarkers of db/db mice (Example 2); type: in vivo
Protocol: Db/db mice maintained as described in Example 1 were divided into five groups (groups 1-5). Group 1 (7 mice) were administered with vehicle (PBS). Group 2 (7 mice), group 3 (8 mice), group 4 (8 mice), group 5 (8 mice) were each administered with NT-4/5 at the doses of 2 mg/kg, 5 mg/kg, 10 mg/kg, and 20 mg/kg, respectively. Both the vehicle and NT-4/5 were administered to each group of the mice subcutaneously once daily for five days. One day before beginning the treatment (T0), blood samples were collected from the mice as described previously for the determination of baseline levels of serum biomarkers (glucose, triglyceride, and cholesterol). Similarly, at day 6 (T6), blood samples were collected for the determination of serum biomarker levels. The blood samples were treated in the same manner as described in Example 1.
Blood glucose, triglyceride, and cholesterol levels were determined as described in Example 1.

[4] = Serum half life after single subcutaneous dose in db/db mice (Example 7); type: in vivo; details: single subcutaneous dose of 4 mg/kg in db/db mice; estimated
Excerpt: In addition, pegylated NT-4/5 has extended half life in vivo.

[5] = test system: db/db mice; test: Triglyceride after two weeks daily s.c. NT-4/5 in db/db mice (Example 2); type: in vivo; details: day 14; 2, 5, 10 or 20 mg/kg s.c. daily for two weeks
Protocol: In another experiment, db/db mice were subcutaneously injected with vehicle (PBS) or NT-4/5 at 2 mg/kg, 5 mg/kg, 10 mg/kg, or 20 mg/kg daily for two weeks.

[6] = test system: DIO mice; test: Body weight, food intake, body composition and bone density (PIXImus) in DIO mice (Example 9); type: in vivo
Excerpt: Test animals: Mice with diet induced obesity (DIO) were used in this study. 29 male C57BL/6J mice were weaned at 4 weeks of age. Immediately after weaning they were put on 58% high fat diet (D12331i, Research Diet) through out the study. The DIO mice at 13 weeks of age weighing in the range of 28-40 g were used in this study.
Administration of NT-4/5: NT-4/5 was obtained from Genentech Inc. or produced as described in U.S. Pat. No. 6,184,360. The mice were divided into 2 groups of equivalent body weight distribution (8 mice per group). The mice were acclimated individually in the Comprehensive Cage Monitoring System (CCMS, Columbus Instruments) for 2 days, in preparation for the indirect calorimetry, before the treatment started. Each group received 5 daily subcutaneous doses of either vehicle or 10 mg/kg of NT-4/5, respectively. Body weight and food intake were monitored 5 days per week through out the entire study. The CCMS monitoring and data analysis of oxygen consumption and carbon dioxide production were carried out according published and commonly accepted protocols as described at website of Jackson Laboratory. The body composition, i.e. percent lean body mass, fat content, and bone density was determined the day both before treatment started (day 0) and the final day of treatment (day 5) with a PIXImus Mouse Densitometer (GE Lunar Medical Systems, Madison, Wis.) using software version 1.46. Brommage et al., Am. J. Physiol. Endocrinol. Metab. 285: 454-459 (2003).

[7] = Day 0 (Baseline), 2 mg/kg group
[8] = Day 0 (Baseline), 5 mg/kg group
[9] = Day 0 (Baseline), 10 mg/kg group
[10] = Day 0 (Baseline), 20 mg/kg group

B1: NT-4/5: mature human neurotrophin-4/5 (SEQ ID NO:1), obtained from Genentech or produced in E. coli (protein, listed as Homo sapiens)
chain: GVSETAPASRRGELAVCDAVSGWVTDRRTAVDLRGREVEVLGEVPAAGGSPLRQYFFETRCKADNAEEGGPGAGGGGCRGVDRRHWVSECKAKQSYVRALTADAQGRVGWRWIRIDTACVCTLLSRTGRA
body weight ([1]; 2, 5 or 10 mg/kg s.c. daily day 0-4, then days 8, 11, 15, 18, 22, 25, 29): reduced body weight in a dose dependent manner | body weight reduction ([1]; day 31, 5 mg/kg and 10 mg/kg groups): about 20% | receptor tyrosine phosphorylation of TrkB-expressing cell line [2]: increased receptor tyrosine phosphorylation | Cholesterol [3, 7]: 86.25 mg/dL | Glucose [3, 7]: 544.50 mg/dL | Triglyceride [3, 7]: 206.13 mg/dL | Cholesterol [3, 8]: 95.88 mg/dL | Glucose [3, 8]: 563.00 mg/dL | Triglyceride [3, 8]: 217.13 mg/dL | Cholesterol [3, 9]: 90.00 mg/dL | Glucose [3, 9]: 538.00 mg/dL | Triglyceride [3, 9]: 197.50 mg/dL | Cholesterol [3, 10]: 98.38 mg/dL | Glucose [3, 10]: 544.88 mg/dL | Triglyceride [3, 10]: 253.50 mg/dL | Cholesterol ([3]; Day 6, 2 mg/kg s.c. once daily for five days): 111.43 mg/dL | Cholesterol ([3]; Day 6, 5 mg/kg s.c. once daily for five days): 113.25 mg/dL | Cholesterol ([3]; Day 6, 10 mg/kg s.c. once daily for five days): 108.75 mg/dL | Cholesterol ([3]; Day 6, 20 mg/kg s.c. once daily for five days): 112.88 mg/dL | blood cholesterol levels ([3]; day 6, 2-20 mg/kg): remained at the baseline level | serum half life [4]: 41 to 52 min | triglyceride level as compared to vehicle [5]: Significant reduction | body fat content ([6]; 10 mg/kg s.c. daily): significantly reduced | body weight ([6]; 10 mg/kg s.c. daily): significantly reduced | food intake ([6]; 10 mg/kg s.c. daily): significantly reduced | lean body mass ([6]; 10 mg/kg s.c. daily): but not the lean body mass | Bone mineral density (mean±SEM) ([6]; day 0, 10 mg/kg group): 0.5235±0.0158 g/cm^2 | Bone mineral density (mean±SEM) ([6]; day 5, 10 mg/kg s.c. daily): 0.5452±0.0142 g/cm^2 | bone density versus vehicle ([6]; day 5, P<0.05): significantly different from that of the vehicle
